These results are taken from patent US12012457 (SYNTHEKINE, dated 2024).

T1: extracellular domain of human IL23R (hIL23R ECD) (human, UniProt Q5VWK5 24-355)
T1 construct: also called hIL-23 ECD antigen
T1 sequence: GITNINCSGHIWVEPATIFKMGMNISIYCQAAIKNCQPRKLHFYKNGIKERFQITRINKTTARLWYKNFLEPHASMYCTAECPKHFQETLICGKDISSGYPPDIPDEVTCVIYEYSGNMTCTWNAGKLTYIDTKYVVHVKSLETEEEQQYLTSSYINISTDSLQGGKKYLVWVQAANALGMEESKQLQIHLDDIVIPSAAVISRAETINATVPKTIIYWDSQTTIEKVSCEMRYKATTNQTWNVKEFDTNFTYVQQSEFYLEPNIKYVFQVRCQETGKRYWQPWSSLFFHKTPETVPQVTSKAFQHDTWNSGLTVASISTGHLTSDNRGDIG

B1: hIL23R VHH3 (VHH)
VHH: QVQLQESGGGSVQAGESLRLSCAASGYTYCTYDMTWYRQAPGKKREFVSGIHSDGTTSYADSVKGRFTISQDNAENTVYLQMNSLKPEDTAMYYCKTDPIATITRRCDSYWGQGTQVTVSS
B2: hIL23R VHH2 (VHH)
VHH: QVQLQESGGGSVQAGGSLRLSCAASGYTYCSYDMSWYRQAPGKKREFVSSFNSDGSTSYADSVKGRFTISQDNAKNTVYLQMNSLKPEDTAMYYCKTDPHADWGAPCGGDYWGQGTQVTVSS
B3: hIL23R VHH4 (VHH)
VHH: B2 VHH with Y27S, S31T, S35T, K44R, S50A, F51I, H100N, A101S, D102G
B4: hIL23R VHH17 (VHH)
VHH: QVQLQESGGGSVQAGGSLRLSCTASGYTFSTMKYMGWFRQAPGKEREGVAAIWIAAGNTYYADSVKGRFTISQDNTKNTVYLQMNSLKPEDTALYYCAAARYGFVPSTWYLPERYNYWGQGTQVTVSS
B5: hIL23R VHH19 (VHH)
VHH: QVQLQESGGGSVQAGGSLRLSCAASGYTSCSYDMSWYRQAPGKKREFVSAIHSDGTTSYADSMKGRFTISQDNAKNTVYLQMNSLKPEDTAMYYCKTDPNYSDHVCPPYWGRGTQVTVSS
B6: hIL23R VHH6 (VHH)
VHH: QVQLQESGGGLVQPGGSLRLSCAASGYTYCSYDMGWYRQAPGKKRKFVSSINSDGTTSYADSVKGRFTISQDNAKNTVYLQMNSLKPEDTAMYYCKTDPQTRPGKPCADYWGQGTQVTVSS
B7: hIL23R VHH9 (VHH)
VHH: B6 VHH with P14A, G35S, K44E

Numbering of substitutions follows the chain as printed.

The assay has as its target T1, extracellular domain of human IL23R …. The experiment in a line: periplasmic extract ELISA (PE-ELISA), 96-well plate, colorimetric.
Regarding B1, the binding result is “binds”.

With B2, the binding result was “binds”.

Consider B3, for which the binding result was “binds”.

Turning to B4, the binding result was “binds”.

Regarding B5, the binding result was “binds”.

Regarding B6, the binding result is given as “binds”.

As to B7, the binding result was “binds”.
